Test results from patent US7999070B2, “Process for screening of a binding peptide specific for specific RNA and RNA binding peptides therefrom” (priority 2005, dated 2011).
Where no end group is shown, it is not given here.

Assays:
[1] = Circular dichroism (CD) of the selected peptide, percentage of alpha-helix; type: physicochemical; details: for degree of alpha-helices (percentage of alpha-helix, fn): CD at 20° C., 222 nm; for degree of alpha-helices, comparison with Rev peptide (number in parenthesis): relative to Rev peptide (natural RRE RNA binding peptide)
Experimental: CD was measured at 20° C. by using JASCO model J715 spectropolarimeter. Scanning of 190-260 nm wave length was performed three times with 1 nm of bandwidth, 0.5 nm of datapitch and 100 nm/min speed. The results of the scanning were averaged to obtain CD data. Background spectrum was measured to correct the basic spectrum, and CD signals were converted into mean residue ellipticity [Q]. The percentage of alpha-helix (fn) is calculated by the following formula. [Q]=Qobs[MRW/(101c)]
MRW=mean residue weight (molecular weight is divided by the number of peptide bond), I=length of passway (cm), C=concentration (mg/mL). fn=([Q]222−[Q]coil)/([Q]helix−[Q]coil)
[Q]222=mean residue ellipticity (deg cm2 mol−1) at 222 nm, [Q]helix=ellipticity of authentic helical peptide, [Q]coil=ellipticity of authentic random coil peptide, n=number of amino acid, t=° C.

[2] = molecular target: RRE RNA of HIV-1; test: Binding capacity of peptide to RRE RNA, fluorescence anisotropy in competition with CRP probe
Experimental: 100 ml of RRE RNA solution was prepared at the concentration of […], which stood at 65° C. for 10 minutes. Then, the solution was cooled down slowly at room temperature to induce folding. Peptide solution was prepared respectively at the concentration of […] and 1.0 mM, and both of them were maintained at 0° C. […] CRP (5-carboxytetramethylrhodamine labeled paromomycin) was prepared as a probe. Buffer solution was prepared by mixing 140 mM NaCl, 5 mM KCl, 1 mM MgCl2 and 20 mM HEPES (N-2-Hydroxyethylpiperazine-N′-2-Ethanesulfonic Acid, pH 7.4). Fluorescence anisotropy was measured with AMINCO-Bowman Series Luminescence Spectrometer at 20° C. 10 nM CRP was added to […] of buffer solution, to which RRE RNA was added in order to combine CRP with RNA. At that time, anisotropy was increased. Thereafter, peptide competitively binding to CRP was added and the changes of anisotropy were measured. The binding capacity to RRE RNA of the peptide was determined by the KaleidaGraph as follows; [Peptide]=Kd(Amax−A)/[Kd(A−A0)+1]*[RNA]−Kd(A−A0)/(Amax−A)[CRP]0(A−A0)/(Amax−A0)
[Peptide] indicates the concentration of the peptide, [RNA] indicates the concentration of RNA and [CRP] indicates the concentration of CRP. A is the value of fluorescence anisotropy of a sample, Amax is the value of totally bound tracer and A0 is the value of totally free tracer.

[3] = molecular target: tRNA; test: Binding capacity to tRNA by fluorescence anisotropy
Experimental: (§1) The detailed investigation on the specificity of peptide 16 (SEQ. ID. No 16) was not performed in the present invention, however the binding capacity to TAR RNA and tRNA, general peptides having stem-loop, was tested by fluorescence anisotropy.

[4] = molecular target: TAR RNA; test: Binding capacity to TAR RNA by fluorescence anisotropy
Experimental: as §1

## LKKLLKLLK*KLLK*LKG (LKKLLKLLK(dimethyl)KLLK(dimethyl)LKG-NH2) [peptide 25, K* is dimethylated lysine]
[1]
  degree of alpha-helices (percentage of alpha-helix, fn): 6.6
  degree of alpha-helices, comparison with Rev peptide (number in parenthesis): 1.0

## LKK*LLKLLKKLLK*LKG (LKK(dimethyl)LLKLLKKLLK(dimethyl)LKG-NH2) [peptide 18, K* is dimethylated lysine]
[1]
  degree of alpha-helices (percentage of alpha-helix, fn): 4.9
  degree of alpha-helices, comparison with Rev peptide (number in parenthesis): 0.71

## LK*KLLKLLK*KLLK*LKG (LK(dimethyl)KLLKLLK(dimethyl)KLLK(dimethyl)LKG-NH2) [peptide 33, K* is dimethylated lysine]
[1]
  degree of alpha-helices (percentage of alpha-helix, fn): 7.5
  degree of alpha-helices, comparison with Rev peptide (number in parenthesis): 1.1

## LKKLLKLLKKLLK*LKG (LKKLLKLLKKLLK(dimethyl)LKG-NH2) [peptide 7, K* is dimethylated lysine]
[1]
  degree of alpha-helices (percentage of alpha-helix, fn): 2.7
  degree of alpha-helices, comparison with Rev peptide (number in parenthesis): 0.40

## LKK*LLKLLK*KLLKLKG (LKK(dimethyl)LLKLLK(dimethyl)KLLKLKG-NH2) [peptide 16, K* is dimethylated lysine]
[1]
  degree of alpha-helices (percentage of alpha-helix, fn): 13
  degree of alpha-helices, comparison with Rev peptide (number in parenthesis): 2.0
[2]
  Kd: < 1 nM
[3]
  binding capacity to tRNA: hundreds and tens
[4]
  binding capacity to TAR RNA: hundreds and tens

## LKK*LLKLLKKLLKLKG (LKK(dimethyl)LLKLLKKLLKLKG-NH2) [peptide 3, K* is dimethylated lysine]
[1]
  degree of alpha-helices (percentage of alpha-helix, fn): 4.9
  degree of alpha-helices, comparison with Rev peptide (number in parenthesis): 0.72

## LKKLLKLLKKLLKLKG [peptide 1]
[1]
  degree of alpha-helices (percentage of alpha-helix, fn): 15
  degree of alpha-helices, comparison with Rev peptide (number in parenthesis): 2.2
